Data on 1 molecule can be found in patent US7439329B2, “GEF-H1b: biomarkers, complexes assays and therapeutic uses thereof” (Sugen, Inc., priority 2002, dated 2008).

Holding throughout (type): cell-based, mouse
Assay [1] has as its system NIH-3T3 cells. In words: Morphology and localization in transfected NIH-3T3 cells (EGFP fluorescence, F-actin and microtubule staining). Here is the method: To analyse the effect of GEF-H1 on cell morphology in fibroblasts, EGFP (enhanced green fluorescent protein) fusion constructs of GEF-H1S and a series of mutant alleles of the PAK4 phosphorylation sites in GEF-H1S were introduced into NIH-3T3 cells. Also constructed, was a dominant negative allele by mutating the DH domain of GEF-H1 resulting in GEF-H-QR312,313MG. In a p21-binding domain (PBD) assay this dominant-negative allele inhibited accumulation of Rac-GTP but not Cdc42-GTP in NIH-3T3 cells. The actin cytoskeleton was stained with coumarin-phallicidin to contrast F-actin structures of EGFP fluorescing cells by microscopy.
Induction of F-actin structures in fibroblasts, namely the formation of filopodia, lamellipodia, and stress fibres is due to signalling by the active forms of Cdc42, Rac, and Rho, respectively. Because PAK proteins and specifically PAK4 play a role in regulating F-actin based morphological structures, experiments were devised to determine whether PAK4-induced changes in cell morphology were mediated by regulation of GEF-H1S. Also co-expressed were EGFP-GEF-H1 constructs with various HA epitope-tagged PAK4 alleles in NIH-3T3 cells. Exogenous PAK4 was detected with an anti-HA antibody (red) and the actin cytoskeleton was stained with coumarin-phallicidin (blue). Although NIH-3T3 cells have low but detectable levels of endogenous PAK4 and GEF-H1 these were not activated under the conditions of the experiment.
Residues phosphorylated by PAK4 in GEF-H1S are conserved in the MT (“microtubule”) bound form of GEF-H1, “GEF-H1M.” GEF-H1M contains a zinc finger domain in its amino terminus that allows it to bind to microtubules. The role microtubule binding in determining the ability of PAK4 to control GEF-H1M activity was investigated. Studies were performed with GEF-H1M that allowed simultaneous examination of both MT (through EGFP-GEF-H1M labelling of MTs in vivo) and actin cytoskeleton (through F-actin staining with coumarin-phallicidin). Also studied, were changes in the MT cytoskeleton by co-staining with β-tubulin antibodies.
GEF-H1S alleles were transiently expressed in NIH-3T3 cells or simultaneously expressed with PAK4 alleles. The GEF-H1S alleles were retrieved from the pcDNA vector by restriction with EcoR1 and Xho1 and inserted into pEGFP-C1 (Clontech,USA Cat#6082-1) restricted with EcoR1 and Sal1. The resulting protein was a hybrid of the brightly fluorescent protein, green fluorescent protein (GFP). The effects on cell morphology were traced by staining of F-actin with coumarin phallacidin (Molecular Probes, USA, Cat. # C-606). […] See, Callow et al., 2002. This finding was consistent with GEF-H1S being a substrate for PAK4, because activated PAK4 is also localized to the Golgi apparatus.
NIH-3T3, 293T, A549, HCT116 and H1299 cells were maintained in Dulbecco's modified Eagles medium (DMEM) 10% Fetal Bovine serum (FBS), penicillin and streptomycin from Invitrogen (Carlsbad, Calif.). For transfection, cells were seeded at 10^5 cells ml-1 for NIH-3T3 and […] for both 293T and H1299 unless otherwise stated. Transfection reagents Lipofectamine 2000 (Invitrogen) or Fugene (Roche Molecular) were used at […] of plasmid DNA. Cellular extracts for immunoblotting were prepared in lysis buffer. For immunoprecipitation experiments lysates were incubated with Protein G beads (Pharmacia) linked with appropriate antibody, glutathione sepharose beads (Pharmacia) with appropriate GST fusion protein and streptavidin beads (Pierce) linked to appropriate biotinylated peptides. For immunofluorescence, coverslips were placed in 24 well cell culture vessels and seeded at the densities above. Transfections took place after 16 h and unless otherwise stated were maintained in Optimem or DMEM with 0.2% FBS for 24 h until fixation. Microscopy was performed on a Nikon E800 microscope with 60× objective (1.5NA). […]

For assay [2], the system named is NIH-3T3 cells. Put plainly: In vitro transformation (foci) assay.
Assay [3] relates to NIH-3T3 cells. Put plainly: Anchorage independent survival and proliferation (XTT assay). The conditions noted are these: over-expression in NIH-3T3; vessels which prevent adherence. The procedure: A stably expressing clone designated 192.58 containing GEF-H1S was established in the mouse fibroblast cell line, NIH-3T3. The pRSV/Rc subcloned vector expresses the GEF-H1S protein in tissue culture cells.
The GEF-H1S clones were plated in tissue culture vessels which prevent adherence. […] The ability for cells to proliferate was measured using the tetrazolium salt XTT based assay (Roche Molecular Biochemicals Cat# 1465015) which measured only metabolically active cells in culture. Measurements were made over a time course.
(In general: Formazan colour is commonly taken as a measure of viable cells.)

Where [4] appears, read: GEF-H1 allele alone, majority of transfected cells.
The mark [5] stands for this setting: co-expressed with PAK4 allele PAK4.
The mark [6] stands for this setting: co-expressed with PAK4 allele PAK4K350,351A.
Where [7] appears, read: co-expressed with PAK4 allele PAK4S474E.

B1: GEF-H1S: novel GEF-H1 splice isoform, residues 1-921, lacking N-terminal zinc finger domain (SEQ ID NO. 2) (protein)
chain: MPVTRASQPRKPSSAQQQKAALLKNNTALQSVSLRSKTTIRERPSSAIYPSDSFRQSLLGSRRGRSSLSLAKSVSTTNIAGHFNDESPLGLRRILSQSTDSLNMRNRTLSVESLIDEAEVIYSELMSDFEMDEKDFAADSWSLAVDSSFLQQHKKEVMKQQDVIYELIQTELHHVRTLKIMTRLFRTGMLEELHLEPGVVQGLFPCVDELSDIHTRFLSQLLERRRQALCPGSTRNFVIHRLGDLLISQFSGPSAEQMCKTYSEFCSRHSKALKLYKELYARDKRFQQFIRKVTRPAVLKRHGVQECILLVTQRITKYPLLISRILQHSHGIEEERQDLTTALGLVKELLSNVDEGIYQLEKGARLQEIYNRMDPRAQTPVPGKGPFGREELLRRKLIHDGCLLWKTATGRFKDVLVLLMTDVLVFLQEKDQKYIFPTLDKPSVVSLQNLIVRDIANQEKGMFLISAAPPEMYEVHTASRDDRSTWIRVIQQSVRTCPSREDFPLIETEDEAYLRRIKMELQQKDRALVELLREKVGLFAEMTHFQAEEDGGSGMALPTLPRGLFRSESLESPRGERLLQDAIREVEGLKDLLVGPGVELLLTPREPALPLEPDSGGNTSPGVTANGEARTFNGSIELCRADSDSSQRDRNGNQLRSPQEEALQRLVNLYGLLHGLQAAVAQQDTLMEARFPEGPERREKLCRANSRDGEAGRAGAAPVAPEKQATELALLQRQHALLQEELRRCRRLGEERATEAGSLEARLRESEQARALLEREAEEARRQLAALGQTEPLPAEAPWARRPVDPRRRSLPAGDALYLSFNPPQPSRGTDRLDLPVTTRSVHRNFEDRERQELGSPEERLQDSSDPDTGSEEEGSSRLSPPHSPRGETLAETWTRDFTRMQDIPEETESRDGEAVASES
In the case of B1, the F-actin result in the assay with NIH-3T3 cells [1] (setting [4]) is “occassional stress fibers”; in the assay with NIH-3T3 cells [1] (setting [5]), “extreme filopodia”; in the assay on NIH-3T3 cells [1] (setting [6]), “stress fibers”; in the assay on NIH-3T3 cells [1] (setting [7]), “peripheral lammellipodia”. For the same molecule, the Microtubule result is given as “radial array” in the assay with NIH-3T3 cells [1] (setting [4]), “radial array” in the assay with NIH-3T3 cells [1] (setting [5]), “radial array” in the assay on NIH-3T3 cells [1] (setting [6]) and “disorganized” in the assay with NIH-3T3 cells [1] (setting [7]). Moreover, the cell morphology result in the assay with NIH-3T3 cells [1] (setting [4]) is on record as “polarized”; in the assay on NIH-3T3 cells [1] (setting [5]), “contracted”; with NIH-3T3 cells [1] (setting [6]) it was “elongated”; in the assay with NIH-3T3 cells [1] (setting [7]), “polarized”. Further, the subcellular localization entry in the assay on NIH-3T3 cells [1] (GFP fusion transiently expressed in NIH-3T3 cells) is recorded as “localized at the perinuclear region of the Golgi apparatus”. Further, the foci induction result with NIH-3T3 cells [2] (NIH-3T3 cells) was “able to induce foci”. Moreover, in the assay with NIH-3T3 cells [2] (co-transformation with activated Ras, titrations), the “effect on foci in co-transformation with activated Ras” value is given as “synergizes with activated Ras”. For the same molecule, the “anchorage independent survival and proliferation” value in the assay on NIH-3T3 cells [3] is recorded as “anchorage independent”.
